T1: GST-GEF1 (Arabidopsis thaliana, UniProt Q93ZY2 1-548)
T1 construct: RopGEF1 (GEF1), Arabidopsis thaliana; also called GST-tagged GEF1; GST-RopGEF1; source: E. coli Rosetta (DE3) pLysS, purified (Glutathione Sepharose); not shown: GST, N-terminal, kept
T1 sequence (looked up): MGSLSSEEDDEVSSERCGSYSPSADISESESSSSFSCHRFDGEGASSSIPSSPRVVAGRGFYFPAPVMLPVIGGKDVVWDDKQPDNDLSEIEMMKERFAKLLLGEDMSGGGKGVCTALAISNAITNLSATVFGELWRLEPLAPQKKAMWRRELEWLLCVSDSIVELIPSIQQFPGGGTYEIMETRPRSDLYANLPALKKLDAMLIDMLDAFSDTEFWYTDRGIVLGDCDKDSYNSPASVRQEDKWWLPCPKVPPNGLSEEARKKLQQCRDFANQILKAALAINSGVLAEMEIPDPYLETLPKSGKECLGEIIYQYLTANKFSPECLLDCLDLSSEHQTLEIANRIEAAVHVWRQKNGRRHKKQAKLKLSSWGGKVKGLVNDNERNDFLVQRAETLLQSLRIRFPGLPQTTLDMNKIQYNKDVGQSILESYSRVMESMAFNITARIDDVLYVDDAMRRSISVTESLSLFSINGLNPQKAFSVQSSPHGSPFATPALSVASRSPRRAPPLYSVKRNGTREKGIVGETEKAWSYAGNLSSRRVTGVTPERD


Molecular target: T1, GST-GEF1
Assay: pull-down; GST-GEF1 on Glutathione Sepharose beads as bait, StrepII-tagged input proteins; bound proteins detected by blot for Strep-II
Conditions: both partners purified

| binding result | Binder |
| --- | --- |
| binds | StrepII-ROP11 (natural protein, ROP11, ROP/RAC small GTPase, Arabidopsis thaliana; also called Strep-II tagged ROP11; source: E. coli Rosetta (DE3) pLysS, purified (Strep-Tactin resin); not shown: Strep-II, N-terminal, kept) not shown |
| binds | StrepII-ABI1 (enzyme, Arabidopsis thaliana, UniProt P49597 1-434, looked up, ABI1, type 2C protein phosphatase, Arabidopsis thaliana; also called Strep-II tagged ABI1; source: E. coli Rosetta (DE3) pLysS, purified (Strep-Tactin resin); not shown: Strep-II, N-terminal, kept) MEEVSPAIAGPFRPFSETQMDFTGIRLGKGYCNNQYSNQDSENGDLMVSLPETSSCSVSGSHGSESRKVLISRINSPNLNMKESAAADIVVVDISAGDEINGSDITSEKKMISRTESRSLFEFKSVPLYGFTSICGRRPEMEDAVSTIPRFLQSSSGSMLDGRFDPQSAAHFFGVYDGHGGSQVANYCRERMHLALAEEIAKEKPMLCDGDTWLEKWKKALFNSFLRVDSEIESVAPETVGSTSVVAVVFPSHIFVANCGDSRAVLCRGKTALPLSVDHKPDREDEAARIEAAGGKVIQWNGARVFGVLAMSRSIGDRYLKPSIIPDPEVTAVKRVKEDDCLILASDGVWDVMTDEEACEMARKRILLWHKKNAVAGDASLLADERRKEGKDPAAMSAAEYLSKLAIQRGSKDNISVVVVDLKPRRKLKSKPLN |
